How the values were obtained:
[1] = target: T1, PrimPol24-354 (AEP catalytic domain) (human, UniProt Q96LW4 24-354); test: EMSA; PrimPol 0.05-1 uM, 10 mM Mg2+, no PolDIP2; EMSA: 10 mM Bis-Tris-propane-HCl pH 7.0, 10 mM MgCl2, 100 uM DTT, 20 nM DNA; 5% native PAGE, 0.5x TBE; binding temperature not stated; conditions: protein: recombinant; label: 5'-HEX on primer; 3'-biotin on template; 20 bp duplex; template 5' overhang 77 nt
T1 sequence: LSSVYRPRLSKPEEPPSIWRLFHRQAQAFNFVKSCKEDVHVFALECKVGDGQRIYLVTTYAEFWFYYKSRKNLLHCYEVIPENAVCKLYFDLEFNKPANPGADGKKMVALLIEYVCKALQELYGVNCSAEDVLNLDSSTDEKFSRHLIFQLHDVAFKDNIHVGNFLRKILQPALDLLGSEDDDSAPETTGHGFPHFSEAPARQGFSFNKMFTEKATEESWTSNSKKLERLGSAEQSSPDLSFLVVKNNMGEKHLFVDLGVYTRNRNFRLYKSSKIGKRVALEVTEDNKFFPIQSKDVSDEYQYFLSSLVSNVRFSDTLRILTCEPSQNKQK

PolDIP2 (untagged) = target: T2, PolDIP2 (untagged) (UniProt Q9Y2S7 1-368); test: EMSA; PolDIP2 alone (100 nM in Fig 2A), 10 mM Mg2+; EMSA: 10 mM Bis-Tris-propane-HCl pH 7.0, 10 mM MgCl2, 100 uM DTT, 20 nM DNA; 5% native PAGE, 0.5x TBE; binding temperature not stated; conditions: protein: recombinant; tags: none (GST cleaved with PreScission protease); label: 5'-HEX on primer; 3'-biotin on template; 20 bp duplex; template 5' overhang 77 nt
T2 sequence: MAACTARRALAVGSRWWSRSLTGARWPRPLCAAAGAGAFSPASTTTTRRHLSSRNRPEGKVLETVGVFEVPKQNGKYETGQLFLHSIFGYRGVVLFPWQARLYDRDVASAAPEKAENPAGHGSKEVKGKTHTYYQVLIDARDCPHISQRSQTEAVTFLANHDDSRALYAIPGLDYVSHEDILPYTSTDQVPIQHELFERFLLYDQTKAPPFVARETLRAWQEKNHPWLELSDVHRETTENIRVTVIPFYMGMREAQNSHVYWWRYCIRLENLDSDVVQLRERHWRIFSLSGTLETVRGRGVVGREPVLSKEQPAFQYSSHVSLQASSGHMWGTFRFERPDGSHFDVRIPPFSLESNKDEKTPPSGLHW

PrimPol^1–354 (human) = target: T3, PrimPol^1–354 (human) (UniProt Q96LW4)
T3 sequence: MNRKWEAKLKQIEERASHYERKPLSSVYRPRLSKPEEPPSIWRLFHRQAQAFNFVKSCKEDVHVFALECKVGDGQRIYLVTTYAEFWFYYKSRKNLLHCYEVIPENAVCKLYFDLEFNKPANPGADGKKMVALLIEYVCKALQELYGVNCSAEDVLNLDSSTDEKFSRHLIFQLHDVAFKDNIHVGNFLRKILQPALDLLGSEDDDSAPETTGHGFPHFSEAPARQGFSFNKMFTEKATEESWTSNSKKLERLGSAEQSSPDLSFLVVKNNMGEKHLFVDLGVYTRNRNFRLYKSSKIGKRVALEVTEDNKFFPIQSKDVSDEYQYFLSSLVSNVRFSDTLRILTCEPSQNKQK

[2] = target: T4, full-length human PrimPol (human) (UniProt Q96LW4)
T4 sequence: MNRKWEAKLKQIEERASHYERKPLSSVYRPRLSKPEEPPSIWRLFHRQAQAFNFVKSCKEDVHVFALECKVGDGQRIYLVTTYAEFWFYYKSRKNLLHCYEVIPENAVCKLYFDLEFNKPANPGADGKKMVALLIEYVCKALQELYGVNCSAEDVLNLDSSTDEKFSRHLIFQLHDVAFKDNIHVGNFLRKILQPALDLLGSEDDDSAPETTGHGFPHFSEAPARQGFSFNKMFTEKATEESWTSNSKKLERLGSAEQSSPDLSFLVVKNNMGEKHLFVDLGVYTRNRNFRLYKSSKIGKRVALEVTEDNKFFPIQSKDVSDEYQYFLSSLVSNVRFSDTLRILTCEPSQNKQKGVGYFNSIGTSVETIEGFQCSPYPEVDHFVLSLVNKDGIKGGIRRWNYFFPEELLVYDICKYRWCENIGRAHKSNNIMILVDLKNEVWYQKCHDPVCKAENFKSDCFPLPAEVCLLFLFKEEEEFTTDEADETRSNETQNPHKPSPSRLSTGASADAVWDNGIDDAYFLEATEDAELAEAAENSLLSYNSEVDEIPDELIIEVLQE

Binder	binding result [1]	binding result (PolDIP2 (untagged))	K half of the stimulation of primer extension by PrimPol 1-354 (20 nM) on 20/50-mer DNA, GST-PolDIP2 0-120 nM (PrimPol^1–354 (human))	K half of the stimulation of primer extension by PrimPol (20 nM) on 20/50-mer DNA, GST-PolDIP2 0-120 nM [2]
20/97-mer primer/template (HP-20 / ND-97) (mixed) DNA 1: TGTCGTCTGTTCGGTCGTTC DNA 2: ACCGCGAACTTGAATTCTAGTTCAGTCTAAATGCTCTCAAGCACTGAGCAATTCACAACATATGGCTTTCGATTACCGAACGACCGAACAGACGACA	binds	no binding	–	–
GST-PolDIP2 (natural protein) SSRNRPEGKVLETVGVFEVPKQNGKYETGQLFLHSIFGYRGVVLFPWQARLYDRDVASAAPEKAENPAGHGSKEVKGKTHTYYQVLIDARDCPHISQRSQTEAVTFLANHDDSRALYAIPGLDYVSHEDILPYTSTDQVPIQHELFERFLLYDQTKAPPFVARETLRAWQEKNHPWLELSDVHRETTENIRVTVIPFYMGMREAQNSHVYWWRYCIRLENLDSDVVQLRERHWRIFSLSGTLETVRGRGVVGREPVLSKEQPAFQYSSHVSLQASSGHMWGTFRFERPDGSHFDVRIPPFSLESNKDEKTPPSGLHW	–	–	33.9 nM	41 nM
